The source of these data is US20220298216A1 (SYRACUSE UNIVERSITY, published 2022).

Non-standard residues stand in square brackets, D forms with d. No end group written: not given here. NMeF = CN[C@@H](Cc1ccccc1)C(=O)O; NMeL = CN[C@@H](CC(C)C)C(=O)O; NMeS = CN[C@@H](CO)C(=O)O; Dap = NC[C@H](N)C(=O)O; Sar = CNCC(=O)O

One assay addresses T1, human ghrelin O-acyltransferase (hGOAT) (human, UniProt Q96T53 1-435, limits assumed).
T1 sequence (looked up): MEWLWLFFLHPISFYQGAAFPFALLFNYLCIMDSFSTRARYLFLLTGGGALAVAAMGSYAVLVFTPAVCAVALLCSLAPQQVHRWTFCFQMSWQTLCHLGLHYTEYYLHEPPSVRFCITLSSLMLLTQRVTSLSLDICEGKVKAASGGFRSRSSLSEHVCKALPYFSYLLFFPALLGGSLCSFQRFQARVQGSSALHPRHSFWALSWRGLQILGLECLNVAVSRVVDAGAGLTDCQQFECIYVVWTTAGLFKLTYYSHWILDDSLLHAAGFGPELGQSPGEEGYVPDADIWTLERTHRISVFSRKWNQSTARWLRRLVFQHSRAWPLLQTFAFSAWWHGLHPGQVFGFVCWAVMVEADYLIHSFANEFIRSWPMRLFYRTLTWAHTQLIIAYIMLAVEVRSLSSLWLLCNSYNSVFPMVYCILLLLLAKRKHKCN
Put plainly: cell-based or functional assay.
SarSDapN·MeF (peptide) came in with an IC50 (µM), inhibitor potency against hGOAT of 1.5 µM.
Same read-out and setting: under G[NMeS][Dap]FL [GN·MeSDapFL] stands greater than 100 µM; under GS[Dap][NMeF]L [GSDapN·MeFL], 0.097 µM.
Same read-out and setting: under GS[Dap]FL [GSDapFL] stands 0.14 µM; under [Sar]S[Dap]FL [SarSDapFL], 0.088 µM; under [Sar]S[Dap][NMeF][NMeL] [SarSDapN·MeFN·MeL], 6 µM.
On the same count and under the same terms, next, GS[Dap]F[NMeL] [GSDapFN·MeL]: 0.062 µM.

The next assay deals with ghrelin receptor (GHS-R1a) (Homo sapiens (Human)) (UniProt Q92847). Put plainly: competition binding assay on the ghrelin receptor, IC50.
Chain of ghrelin receptor (GHS-R1a) (Homo sapiens (Human)) (Q92847 whole entry, form in doubt): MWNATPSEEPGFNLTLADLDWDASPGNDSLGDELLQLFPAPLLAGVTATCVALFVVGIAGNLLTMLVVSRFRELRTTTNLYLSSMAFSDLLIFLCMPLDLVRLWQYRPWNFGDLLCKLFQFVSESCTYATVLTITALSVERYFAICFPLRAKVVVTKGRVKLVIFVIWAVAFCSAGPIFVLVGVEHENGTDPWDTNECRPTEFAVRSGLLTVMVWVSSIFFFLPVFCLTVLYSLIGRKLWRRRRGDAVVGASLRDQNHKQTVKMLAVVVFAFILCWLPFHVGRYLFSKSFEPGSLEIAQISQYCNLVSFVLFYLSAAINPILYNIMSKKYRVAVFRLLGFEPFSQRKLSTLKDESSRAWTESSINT
“ghrelin-derived peptide with a sarcosine substitution at the G1 position” registered a fold loss in binding affinity (IC50) against the unsubstituted peptide greater than 25 fold.

Another assay addresses GOAT (human) (UniProt Q96T53). Nature of the assay: GOAT inhibition assay.
On to Ac-SDapFL, for which the IC50 (commonly the point on the concentration scale where inhibition reaches its midpoint) was greater than 100000 nM.
The same measure, in the same setting: next, GSDap: greater than 100000 nM; GSDapF: 1200 nM; GS[Dap]FLS: 74 nM.
On the same count and under the same terms, next, SDapFL: greater than 100000 nM.
